Measurements from patent US12258605B2, “Alkane oxidation by modified hydroxylases” (The California Institute of Technology, priority 2005, dated 2025).
Where a chain is given by its changes, count along the chain named. Names and notes keep the numbering of the source. Marks after values point to notes of the source that are not given here.

B1: 35-E11-E464R: P450 BM-3 variant, SEQ ID NO:8; 35-E11 with E464R (protein)
chain: TIKEMPQPKTFGELKNLPLLNTDKPVQALMKIADELGEIFKFEAPGCVTRYLSSQRLIKEACDESRFDKNLSQALKFFRDFSGDGLFTSWTHEINWKKAHNILLPSFSQQAMKGYHAMMVDIAVQLVQKWERLNADEHIEVSEDMTRLTLDTIGLCGFNYRFNSFYRDQPHPFIISMVRALDEVMNKLQRANPDDPAYDENKRQCQEDIKVMNDLVDKIIADRKARGEQSDDLLTQMLNGKDPETGEPLDDGNISYQIITFLIAGHETTSGLLSFALYFLVKNPHVLQKVVEEAARVLVDPVPSYKQVKQLKYVGMVLNEALRLWPTFPAFSLYAKEDTVLGGEYPLEKGDEVMVLIPQLHRDKTIWGDDVEEFRPERFENPSAIPQHAFKPFGNGQRACIGQQFALHEATLVLGMMLKHFDFEDHTNYELDIKETLTLKPEGFVVKAKSKKIPLGGIPSPSTRQSAKKVRKKAENAHNTPLLVLYGSNMGTAEGTARDLADIAMSKGFAPQVATLDSHAGNLPREGAVLIVTASYNGHPPDNAKQFVDWLDQASADEVKGVRYSVFGCGDKNWATTYQKVPAFIDETLAAKGAENIADRGEADASDDFEGTYEEWREHMWSDVAAYFNLDIENSEDNKSTLSLQFVDSAADMPLAKMHGAFSTNVVASKELQQPGSARSTRHLEIELPKEASYQEGDHLGVIPRNYEGTVNRVTARFGLDASQQIRLEAEEEKLAHLPLAKTVSVEELLQYVELQDPVTRTQLRAMAAKTVCPPHKVELEALLEKQAYKEQVLAKRLTMLELLEKYPACEMKFSEFIALLPSIRPRYYSISSSPRVDEKQASITVSVVSGEAWSGYGEYKGIASNYLAELQEGDTITCFISTPQSEFTLPKDPETPLIMVGPGTGVAPFRGFVQARKQLKEQGQSLGEAHLYFGCRSPHEDYLYQEELENAQSEGIITLHTAFSRMPNQPKTYVQHVMEQDGKKLIELLDQGAHFYICGDGSQMAPAVEATLMKSYADVHQVSEADARLWLQQLEEKGRYAKDVWAG
modifications: mutant P450 35-E11-E464R protein sequence
notes: 35-E11 with E464R
B2: 21-4G: P450 BM-3 variant, SEQ ID NO:13; 35-E11 plus D631N (protein)
chain: B1 chain with R464G, D631N
modifications: Mutant P450 21-4G protein sequence
notes: 35-E11 plus D631N
B3: 35-E11-E464Y: P450 BM-3 variant, SEQ ID NO:9; 35-E11 with E464Y (protein)
chain: B1 chain with R464Y
modifications: mutant P450 35-E11-E464Y protein sequence
notes: 35-E11 with E464Y
B4: 23-1D: P450 BM-3 variant, SEQ ID NO:12; 35-E11 plus Q645R, P968L (protein)
chain: B1 chain with R464G, Q645R, P968L
modifications: Mutant P450 23-1D protein sequence
notes: 35-E11 plus Q645R, P968L
B5: 35-E11-E464T: P450 BM-3 variant, SEQ ID NO:10; 35-E11 with E464T (protein)
chain: B1 chain with R464T
modifications: mutant P450 35-E11-E464T protein sequence
notes: 35-E11 with E464T

Experiment: Background NADPH oxidation rate in screen (cell lysate, no substrate)
Format: biochemical
Settings: relative to 35-E11
Description: (§1) Libraries of mutants of 35-E11 were screened for phenotypes indicative of either increased product formation on small gaseous substrates slightly larger than methane. Additionally, they were screened for increased coupling of the consumption of NADPH reducing equivalents to product formation. Product formation was determined by measuring total amount of dimethyl ether hydroxylation while increased coupling was determined primarily by decreased background NADPH consumption rates (measured spectrophotometrically at 340 nm in the absence of substrate).
The relative dimethyl ether (DME) activity was measured, 1 hour after treatment with Purpald, as the average net and absorbance at 550 nm from 8 microtitre plate DME reactions of the mutant compared to 8 equivalent reactions of 35-E11. All values were normalized by measuring the P450 concentration in each well with CO binding. “Asteriks” indicate criteria used to select mutants from libraries for further characterization. The oxidation rate is measured as absorbance change at 340 nm over 1 minute upon the addition of NADPH to 8 microtitre plate wells containing P450-containing cell lysate and compared to 8 equivalent reactions of 35-E11. All values were normalized by measuring the P450 concentration in each well with CO binding. The total turnover number (TTN) was measured as the absorbance at 550 nm of methane reactions with each mutant after treatment with alcohol oxidase and […]

Q: Which “Relative background NADPH oxidation rate” value does the source give for B1 here?
A: 0.6*

Q: With B2 as the molecule, how does the “Relative background NADPH oxidation rate” value read?
A: 0.7*

Q: For B3, which “Relative background NADPH oxidation rate” value is on record?
A: 0.7*

Q: Which “Relative background NADPH oxidation rate” value does the source give for B4 here?
A: 0.8*

Q: With B5 as the molecule, how does the “Relative background NADPH oxidation rate” value read?
A: 0.7*

Experiment: Methane to methanol conversion (alcohol oxidase/Purpald)
Format: biochemical
Settings: methane to methanol
Description: The 35-E11 variant was tested for the ability to convert methane to methanol using the method of Anthon and Barrett (Agric. Food Chem., 52:3749 (2004)). The method was optimized so that it could detect methanol concentrations in water as low as 10 μM.
The mutant BM-3 enzymes described below were purified using published procedures and used as catalysts in small reactions with methane. In glass head space vials containing magnetic stirring bars, BM-3 catalyst was added to 0.1 M potassium phosphate buffer (pH=8) saturated with methane. The vials were then crimped shut and charged to 20 psi with methane. To start the biotransformation, an NADPH regeneration system consisting of NADP+, isocitrate, and isocitric dehydrogenase was added through a syringe. The reaction was allowed to stir 12-15 hours. Methanol production was measured using a coupled enzyme assay. Aliquots of the reaction were transferred to 96-well microtitre plates and reacted with the enzyme alcohol oxidase for 5 minutes at room temperature. Alcohol oxidase converts the methanol produced by the BM-3 variants into formaldehyde which can be detected with the dye Purpald. To detect formaldehyde and quench the alcohol oxidase reaction, a solution of Purpald in 2 M NaOH was added and allowed to react for one hour. The purple color that Purpald forms in the presence of formaldehyde was quantified one hour later by spectrophotometrically reading the well at 550 nm and comparing the absorbance against similarly-treated solutions of BM-3, NADPH regeneration system, and methane-free buffer spiked with known concentrations of methanol. The results of these biotransformations are reported in Table 3 and sample spectra from the colorimetric assay are shown in FIG. 7.
Reactions for enzyme-catalyzed conversion of methane to methanol were carried out in 10 mL glass headspace vials. A 470 μL reaction mixture containing 5 μM purified BM-3 variant in 0.1 M potassium phosphate buffer (pH 8.0) was first added to the vial. The vial was immediately topped with a septum, pressurized with 30 psi of methane and shaken at 4° C. for 1 hour. […] For determination of total turnover, the reaction was allowed to proceed for 20 hours at room temperature.
The amount of methanol product formed during the 20 hr methane reaction was quantified colorimetrically with the use of alcohol oxidase and Purpald. 190 μL of the reaction mixture is transferred onto a single cell of a 96 well plate. 10 μL of 0.05 U/μL solution of alcohol oxidase (from Pichia pastoris, purchased from Sigma-Aldrich) was added to cell and allowed to incubate at room temperature for 5 minutes. During this time, the alcohol oxidase converts the methanol into formaldehyde. Purpald (168 mM in 2 M NAOH) was then added to form a purple product with the formaldehyde in solution. The purple color was read approximately 1 hour later at 550 nm using a Spectramax Plus microtiter plate reader. The concentration of methanol was determined based on the measure absorbance in comparison to a methanol calibration curve. The methanol calibration curve was generated with several standards. Each standard contained 100 μL of a methanol solution (10, 20, 40, 60, 100 μM) and 90 μL of the methane reaction mixture described above, without the methane pressurization.
The relative dimethyl ether (DME) activity was measured, 1 hour after treatment with Purpald, as the average net and absorbance at 550 nm from 8 microtitre plate DME reactions of the mutant compared to 8 equivalent reactions of 35-E11. All values were normalized by measuring the P450 concentration in each well with CO binding. “Asteriks” indicate criteria used to select mutants from libraries for further characterization. The oxidation rate is measured as absorbance change at 340 nm over 1 minute upon the addition of NADPH to 8 microtitre plate wells containing P450-containing cell lysate and compared to 8 equivalent reactions of 35-E11. […]

Q: Which “Methane TTN” value does the source give for B1 here?
A: 12

Q: Which “Methane TTN” value does the source give for B2 here?
A: 10

Q: Which “Methane TTN” value does the source give for B3 here?
A: 13

Q: Which “Methane TTN” value does the source give for B4 here?
A: 11

Q: For B5, which “Methane TTN” value is on record?
A: 11

Experiment: High-throughput dimethyl ether (DME) screen
Format: biochemical
Settings: relative to 35-E11; normalized to P450 concentration
Description: Cell lysates for high throughput screening were prepared as described previously (Peters et al., J. Am. Chem. Soc. 125:13442 (2003); incorporated by reference herein). High-throughput dimethyl ether (DME) screens were performed in 96 well plates as described previously. Improved mutants were selected based on an increased signal compared to 9-10A (for the saturation mutagenesis libraries) and 1-12G (for the recombination library). Reactions on octane and propane were analyzed by gas chromatography as described.
as §1
The relative dimethyl ether (DME) activity was measured, 1 hour after treatment with Purpald, as the average net and absorbance at 550 nm from 8 microtitre plate DME reactions of the mutant compared to 8 equivalent reactions of 35-E11. All values were normalized by measuring the P450 concentration in each well with CO binding. “Asteriks” indicate criteria used to select mutants from libraries for further characterization. The oxidation rate is measured as absorbance change at 340 nm over 1 minute upon the addition of NADPH to 8 microtitre plate wells containing P450-containing cell lysate and compared to 8 equivalent reactions of 35-E11. All values were normalized by measuring the P450 concentration in each well with CO binding. The total turnover number (TTN) was measured as the absorbance at 550 nm of methane reactions with each mutant after treatment with alcohol oxidase and
Screening libraries by spectroscopically monitoring NADPH consumption rates in the presence of the alkane often selects for mutants with NADPH oxidation rates highly uncoupled to product formation. This can be overcome through the use of surrogate substrates that mimic desired substrates, yet yield species when hydroxylated that are easily detected either directly or with the addition of a dye. For example, the screen for the high-throughput identification of mutant BM-3 enzymes with activity towards propane as described previously uses dimethyl ether (DME) as a propane surrogate substrate. Upon hydroxylation, it decomposes into methanol and dye-sensitive formaldehyde. In addition, hexyl methyl ether (HME) may be used as a surrogate for octane. It shares most of the physical properties of octane, including solubility in buffer, size, shape, and strength of its C—H bonds. When HME is hydroxylated at its methoxy carbon, it also produces an equivalent of formaldehyde which is visually detected at concentrations as low as 10 μM with the dye Purpald (see FIG. 25). Hexanal, the aldehyde product formed when the α-carbon of the hexyl group is hydroxylated, is practically unreactive towards Purpald at some concentrations used in the present screens. Formaldehyde is approximately 42 times more sensitive to Purpald than hexanal (see FIG. 26). This disproportionate response makes HME, in contrast to the symmetric ether DME, a regio-selective screen for terminal alkane hydroxylation.
High-throughput screening. Single colonies were picked and inoculated by a Qpix robot (Genetix, Beaverton, OR) into 1-mL, deep-well plates containing LB (Amp*) medium (400 μL). The plates were incubated at 30° C., 250 rpm, and 80% relative humidity. After 24 h, 50 μL from this pre-culture were used to inoculate a 2-mL, deep-well plates containing […] TB (Amp^+) medium per well. Cultures were grown at 37° C., 220 rpm, and 80% relative humidity. […]

Q: Which “Relative DME activity in screen” value does the source give for B1 here?
A: 0.9

Q: For B2, which “Relative DME activity in screen” value is on record?
A: 1.1

Q: With B3 as the molecule, how does the “Relative DME activity in screen” value read?
A: 0.8

Q: For B4, which “Relative DME activity in screen” value is on record?
A: 0.7

Q: For B5, which “Relative DME activity in screen” value is on record?
A: 0.8
